Experimental data: patent US20200332017A1 (SALUBRIS CHENGDU BIOTECH, published 2020)
Read-outs that look alike come from different tables or passages of the source. Values belong to the binder of their own block, whether it stands above or below them.

Tests used:
[1] = biological target: T1, full length human CD40 (uniprot # P25942-1) on the membrane of 293T-CD40 cells (human, UniProt P25942 21-277); assay: cell-based or functional assay
[2] = biological target: T1, full length human CD40 (uniprot # …); assay: flow cytometry on 293T-CD40 cells
Experimental: (§1) 2×10⁵ cells per well in 96 well-plates were incubated with the mouse anti-CD40 antibodies or the controls of various concentrations in FACS buffer for 40 minutes on ice. […] Following an incubation of 40 minutes at 4° C. in dark, cells were washed three times and resuspended in FACS buffer. Fluorescence was measured using a Becton Dickinson FACS Canto II-HTS equipment and plotted against antibody concentration.

[3] = biological target: T2, human CD40-Fc protein (amino acid residue 21-193 of SEQ ID NO: 67 linked to N-terminus of amino acid residue … (human, biotin-labeled in the capture ELISA and in the benchmark blocking ELISA; unlabeled when coated in the ligand blocking ELISA); assay: capture ELISA; antibody captured, biotin-labeled human CD40-Fc in solution
T2 construct: also called biotin-labeled human CD40-Fc; human CD40-Fc-biotin
Experimental: (§2) Plates were washed 4 times with wash buffer (PBS+0.05% Tween-20, PBST) and then blocked with 200 μl/well blocking buffer (5% w/v non-fatty milk in PBST) for 2 hours at 37° C. […] After a final wash, plates were incubated with 100 μl/well ELISA substrate TMB (Innoreagents, Cat # TMB-S-002). The reaction was stopped in 15 minutes at 25° C. with 50 μl/well 1M H₂SO₄, and the absorbance was read at 450 nm and plotted against antibody concentration. Data were analyzed using Graphpad Prism software and EC₅₀ values were reported.

[4] = biological target: T2, human CD40-Fc protein (amino acid …); assay: competitive ELISA; coated human CD40-Fc, competitor biotin human CD40L-his
Experimental: Briefly, human CD40-Fc proteins (amino acid residue 21-193 of SEQ ID NO: 67 linked to N-terminus of amino acid residue 99-330 of SEQ ID NO.: 24) were coated on 96-well micro plates at 2 μg/mL in coating buffer (PBS) and incubated overnight at 4° C. The next day, plates were washed with wash buffer (PBS+0.05% Tween-20, PBST), and blocked with 5% w/v non-fatty milk in PBST for 2 hours at 37° C. Plates were then washed again using wash buffer.
(§3) Serially diluted the mouse anti-CD40 antibodies of the present invention or the controls (starting at 200 nM with a four-fold serial dilution) in 2.5% w/v non-fatty milk in PBST were prepared to the plates and incubated with the human CD40-Fc proteins at room temperature for 40 minutes. […] Plates were washed again. 100 μl/well of streptavidin conjugated HRP was added and incubated for 40 minutes at 37° C. Plates were washed again using wash buffer. Finally, TMB was added and the reaction was stopped using 1M H₂SO₄, and the absorbance was read at 450 nm. Data were analyzed using Graphpad Prism software and IC₅₀ values were reported.

[5] = biological target: T2, human CD40-Fc protein (amino acid …); assay: competitive ELISA; biotin human CD40-Fc in solution, competitor coated BM2
Experimental: (§4) The ability of the mouse anti-CD40 antibodies of the present invention to block the binding of the Benchmark to human CD40 was measured using a competitive ELISA assay. […] The next day, plates were washed with wash buffer, and blocked with 5% w/v non-fatty milk in PBST for 2 hours at 37° C. Plates were then washed again using wash buffer. […] After incubation at 37° C. for 40 minutes, plates were washed 4 times using wash buffer. Then streptavidin conjugated HRP was added and incubated for 40 minutes at 37° C. to detect biotin-labeled human CD40-Fc bound to plates. Plates were washed again using wash buffer. Finally, TMB was added and the reaction was stopped using 1M H₂SO₄, and the absorbance was read at 450 nm. Data were analyzed using Graphpad Prism software and IC₅₀ values were reported.

[6] = biological target: T1, full length human CD40 (uniprot # …); assay: flow cytometry on 293T-CD40 cells, PE-labeled secondary antibody, MFI
Experimental: as §1

[7] = biological target: T1, full length human CD40 (uniprot # …); assay: cell-based or functional assay; remark: listed apart in the source
[8] = biological target: T3, Human CD40-his protein (Acro biosystems, Cat # CD0-H5228) (human, UniProt P25942 21-193); assay: SPR, Biacore; human CD40-his
T3 construct: Bought reagent; not shown: his tag
Description: (§5) Briefly, goat anti-mouse IgG (GE healthcare, Cat # BR100838, Mouse Antibody Capture Kit) was covalently linked to a CM5 or a Protein G chip (carboxy methyl dextran coated chip) via primary amines, using a standard amine coupling kit provided by Biacore (GE healthcare, Pittsburgh, Pa., USA). Un-reacted moieties on the biosensor surface were blocked with ethanolamine. […] Then, human CD40-his (Acro biosystems, Cat # CD0-H5228) or cynomolgus monkey CD40-his protein (Acro biosystems, Cat # CD0-052H6) in HBS EP buffer (provided by Biacore) was flowed onto the chip at a flow rate of 30 μL/min. The antigen-antibody association kinetics was followed for 2 minutes and the dissociation kinetics was followed for 10 minutes. The association and dissociation curves were fit to a 1:1 Langmuir binding model using BIA evaluation software.

[9] = biological target: T4, cynomolgus monkey CD40-his protein (Acro biosystems, Cat # CD0-052H6) (cynomolgus monkey, UniProt G7PG38 21-193); assay: SPR, Biacore; cynomolgus CD40-his
T4 construct: Bought reagent; also called Cynomolgus CD40-his
Description: as §5

[10] = biological target: T1, full length human CD40 (uniprot # …); assay: flow cytometry on 293T-CD40 cells; remark: listed apart in the source
Experimental: as §1

[11] = biological target: T3, Human CD40-his protein (Acro …); assay: SPR, Biacore; antibody captured, human CD40-his flowed
Description: as §5

[12] = biological target: T2, human CD40-Fc protein (amino acid …); assay: capture ELISA; antibody captured, biotin-labeled human CD40-Fc in solution; remark: listed apart in the source
Experimental: as §2

[13] = biological target: T2, human CD40-Fc protein (amino acid …); assay: competitive ELISA; coated human CD40-Fc, competitor biotin human CD40L-his; remark: listed apart in the source
Experimental: as §3

[14] = biological target: T1, full length human CD40 (uniprot # …); assay: flow cytometry on 293T-CD40 cells, PE goat anti-human IgG Fc-gamma secondary antibody, MFI
Experimental: Following an incubation of 40 minutes at 4° C. in dark, cells were washed three times and resuspended in FACS buffer. Fluorescence was measured using a Becton Dickinson FACS Canto II-HTS equipment and plotted against antibody concentration.

[15] = biological target: T2, human CD40-Fc protein (amino acid …); assay: capture ELISA (antibody captured on coated goat anti-human IgG F(ab')2, biotin-labeled human CD40-Fc in solution, streptavidin-HRP, OD(450-630))
[16] = biological target: T2, human CD40-Fc protein (amino acid …); assay: ligand blocking ELISA: human CD40-Fc coated, antibody titrated, then biotin-labeled human CD40L-his (blocked ligand), streptavidin-HRP, OD(450-630)
Experimental: as §3

[17] = biological target: T2, human CD40-Fc protein (amino acid …); assay: benchmark blocking ELISA: BM2 (Selicrelumab) coated as competitor, antibody titrated in biotin-labeled human CD40-Fc solution, streptavidin-HRP, OD(450-630)
Experimental: as §4

Cell-based Reporter assay (EC50, nM) [1]: 6.36 nM
EC50 [2]: 2.54 nM
EC50 [3]: 47.1 nM
IC50 [4]: 315 nM
IC50 [5]: 4.76 nM
EC50 (read off the curve) [6]: ~3 nM
B1: mouse anti-CD40 monoclonal antibody 1B2 (antibody, V domains shown)
VH: EVQLQQSGPELVKPGASVKMSCKASGYTFTDYVMHWVKQKPGQGLECIGYINPYNDGTKYNEKFKGKATLTSDKSSSAAYLELSSLTSEDSAVYYCARGFLRESWFGYWGQGTLVTVSA
VL: DVLMTQTPLSLPVSLGDQASISCRSSQNIVHSNGNTYLDWYLQKPGQSPKLLIYKVSNRFSGVPDRFSGSGSGTDFTLKINRVEAEDLGVYYCFQGSHVPPTFGAGTKLELK
notes: Purified from hybridoma supernatant; also called Mouse 1B2

cell based functional assay (EC50, nM) [7]: 4.25 nM
Kd [8]: 11.3 nM
Kd [9]: 4.04 nM
EC50 [10]: 1.85 nM
Kd [11]: 11.9 nM
koff [11]: 0.00968 s⁻¹
kon [11]: 814000 M⁻¹ s⁻¹
EC50 [12]: 0.248 nM
IC50 [5]: 0.111 nM
IC50 [13]: 3 nM
EC50 (read off the curve) [14]: ~0.3 mg/L
EC50 (read off the curve) [15]: ~0.04 mg/L
IC50 (read off the curve) [16]: ~0.5 mg/L
IC50 (read off the curve) [17]: ~0.02 mg/L
B2: humanized antibody huC1C1-V7 (antibody, human IgG1, kappa, V domains shown)
VH: EVQLVESGGGVVQPGRSLRLSCAASGFTFSNYGMSWVRQAPGKGLEWVASISSGGDDTYYPDNVKGRFTISRDNSKNTLYLQMNSLRAEDTAVYYCTRAGGKAMDYWGQGTLVTVSS
VL: EIVLTQSPATLSLSPGERATLSCRASQSIRDNLHWYQQKPGQAPRLLIYYASQSISGIPARFSGSGSGTDFTLTISSLEPEDFAVYYCQQFNSWPLTFGQGTKVEIKR
notes: Human IgG1/kappa; also called humanized C1C1-V7
